Measurements from patent publication US20120108796A1 (Bayer, published 2012).

Molecular target: T1, human TFPI (tissue factor pathway inhibitor) (human, UniProt P10646 29-304, limits assumed)
T1 construct: bought protein, coated on ELISA plates or amine-coupled to a CM5 chip; also called hTFPI
T1 sequence (looked up): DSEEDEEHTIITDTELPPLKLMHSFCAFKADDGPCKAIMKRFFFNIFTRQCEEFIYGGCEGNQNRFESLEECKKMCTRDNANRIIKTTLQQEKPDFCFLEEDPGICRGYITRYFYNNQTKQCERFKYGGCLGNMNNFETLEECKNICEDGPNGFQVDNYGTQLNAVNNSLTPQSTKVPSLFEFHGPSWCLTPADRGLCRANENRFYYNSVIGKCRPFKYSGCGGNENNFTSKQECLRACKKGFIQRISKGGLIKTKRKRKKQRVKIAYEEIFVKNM
Assay: competitive ELISA
Protocol: Briefly, MTP plates (either Mesoscale Discovery, L21XA-4 or Nunc maxisorp black, 460518) were coated with 0.04-2 lug/m1 either human or mouse TFPI diluted in phosphate buffered saline (PBS) or in coating buffer (Candor Bioscience GmbH, 121500), respectively and incubated over night at 4° C. After washing, plates were blocked with 3% bovine serum albumin (Sigma, A4503) in PBST for 1 hour at room temperature and the washing step was repeated. For binding of the antibodies 10-25 µl of culturing supernatants normalized to their respective antibody expression level (if not otherwise indicated) were added to the plates for 1 hour at RT followed by washing with PBST. Bound wild-type and variants were then either detected by an epitope tag specific antibody or a competition step was included. For competition, 50-300 nM competitor or free antigen was added and incubated for 20 minutes to 24 hours at room temperature. […] For signal detection in maxisorp plates 10 [tM amplex red substrate (Invitrogen, A12222) was added and incubated for 10 to 30 minutes at room temperature in the dark followed by fluorescence measurement. For the detection in MSD plates MSD read buffer T was diluted to 2× in H2O (Mesoscale Discovery, R92TC-1), added to the plates and the electrochemiluminiscence signal was detected at 620 nm using the Mesoscale Discovery Sector Imager 6000. […]

variant/wild-type: 3.7 ratio
B1: 4B7 HC H107M LC F31I (Fab, V domains shown)
VH: QVQLQQSGPGLVKPSQTLSLTCAISGDSVSSNSAAWSWIRQSPGRGLEWLGIIYKRSKWYNDYAVSVKSRITINPDTSKNQFSLQLNSVTPEDTAVYYCARWHSDKMWGFDYWGQGTLVTVSS
VL: DIVMTQSPLSLPVTPGEPASISCRSSQSLVISDGNTYLNWYLQKPGQSPQLLIYKGSNRASGVPDRFSGSGSGTDFTLKISRVEAEDVGVYYCQQYDSYPLTFGQGTKVEIKR
notes: Fab; tags as m115; also called HC H107M LC F311 (so in the source)
